These results are taken from patent publication US9428564B2, “Muscle function enhancing peptide” (Universitatsklinikum Heidelberg, priority 2009, dated 2016).

For experiment [1], the system named is permeabilized EDL murine skeletal muscle fibers. In words: Isometric twitch force in permeabilized skeletal muscle fibers. The class given is cell-based, mouse. Here is the method:
Muscle Fiber Preparation and Experimental Solutions. All of the animals were handled according to the guidelines of the animal care committee of the University of Heidelberg. Male BALB/c mice (3-6-months-old) were sacrificed by an overdose of carbon dioxide, and muscle fiber preparation was carried out as previously described (Fink R. H. and Stephenson D. G., 1987, Pflugers Arch. Eur. J. Physiol. 409:374-380; Makabe M. et al., 1996, Pflugers Arch. Eur. J. Physiol. 432: 717-726). Either EDL (M. ext. dig. longum) or Soleus was isolated, and a small fiber bundle containing two to four single fibers (between 80 and 150 μm in diameter and 3-4-mm-long) was dissected in paraffin oil. […] The free ion concentrations were calculated with the computer program REACT (version 2.0) from G. L. Smith (Glasgow, Scotland). […]
Muscle fibers were skinned for 5 min in skinning solution while the sarcomere length was adjusted to 2.6±0.1 μm using the diffraction pattern of a helium-neon laser. […] Maximum force was measured in the high activating solution at pCa 4.28 and 5 mM caffeine. […] Several control transients were recorded before the fiber was exposed to the S100A1 protein or the S100A1 peptide mixture (N/H/C) or the C-terminal 20-mer alone, and the experiment was repeated as outlined above. […] The correlation coefficients were calculated to determine the accuracy of the fit. […]

In experiment [2] the test system is adult intact cardiomyocytes. The experiment is described as follows: Calcium homeostasis in adult intact cardiomyocytes. The class given is cell-based.
The next experiment concerns skeletal muscle fibers. The experiment is described as follows: Calcium homeostasis in intact skeletal muscle fibers. Format: cell-based.
Experiment [3] concerns permeabilized cardiomyocytes. In words: Ca2+-spark frequency in β-escin permeabilized cardiomyocytes. Format: cell-based, rabbit. Here is the method: Adult ventricular rabbit cardiomyocytes were isolated from four different animals as previously described (Loughrey C. M. et al., 2004, J. Physiol. 556:919-934) and permeabilized using β-escin (0.1 mg/ml). The permeabilized cells were incubated for 1 minute with rhodamine-labeled human S100A1 protein (0.1 μM) or FITC-labeled S100A1 C-terminal 20-mer peptide (0.1 μM) fused to a hydrophilic linker (amino acids 75 to 94 of human S100A1 fused to D-K-D-D-P-P (SEQ ID NO: 354)). Cells were monitored using a Bio-Rad 2000 laser scanning confocal microscope (LSCM). A striated staining pattern can be observed that resembles the ryanodine staining pattern (FIG. 4).
Isolated cardiomyocytes were perfused with a mock intracellular solution and permeabilized using β-escin (0.1 mg/ml). Fluo-3 free acid (10 μM) present in the perfusing solution was excited at 488 nm (Kr-laser) and measured at >515 nm applying epifluorescence optics of an inverted microscope with a ×60-1.2 NA water-immersion objective lens. Fluorescence was acquired in line scan mode at 2 ms line^−1; pixel dimension was 0.3 μm (512 pixels scan^−1; zoom=1.4). The scanning laser line orientated parallel with the long axis and placed approximately equidistant between the outer edge of the cell and the nucleus/nuclei, to ensure the nuclear area was not included in the scan line. To enable this trace to be converted to free calcium concentration ([Ca^2+]) a series of calibration solutions were used at the end of each Ca^2+-spark measurement period incorporating 10 mM EGTA. In all experiments concerning Ca^2+-sparks, the [Ca^2+] in the test solution was 145-160 nM. Ca^2+-sparks recorded in Fluo-3-containing solutions were quantified using an automated detection and measurement algorithm. All Ca^2+-spark measurements were made within 7-8 min of cell permeabilization. This time was standardized to minimize loss of soluble proteins. S100A1 protein or S100A1-ct peptide was applied in mock solution using a gravity-fed perfusion system. […]

Entries after “also recorded” stand apart in the source; their conditions may differ. Where two headings read alike, the source gives them in different places.

B1: S100A1 protein: native human S100A1 protein, 94 amino acids, SEQ ID NO: 1 (protein, listed as Homo sapiens)
chain: MGSELETAMETLINVFHAHSGKEGDKYKLSKKELKELLQTELSGFLDAQKDVDAVDKVMKELDENGDGEVDFQEYVVLVAALTVACNNFFWENS
With B1, the isometric twitch force result in experiment [1] is “enhances; also recorded: equivalent biological potency to enhance isometric force”; in experiment [1] (listed as full-length S100A1 protein), “has a potency to enhance isometric twitch force”. Moreover, the calcium homeostasis result (in experiment [2]; in the experiment on skeletal muscle fibers) was “does not alter” in each case. Also, the RyR2 activity result in experiment [3] is on record as “decreases”. Also, the “diastolic calcium spark frequency” value in experiment [3] is “decrease calcium spark frequency; also recorded: decreases”.
